Our source for the Kd, koff and kon values is patent US12448423 (Xencor, dated 2025).

This assay concerns the target T1, HIS-tagged human NKG2D (human, UniProt P26718 73-216, limits assumed).
T1 construct: Captured on HIS1K biosensors; not shown: HIS tag
T1 sequence (looked up): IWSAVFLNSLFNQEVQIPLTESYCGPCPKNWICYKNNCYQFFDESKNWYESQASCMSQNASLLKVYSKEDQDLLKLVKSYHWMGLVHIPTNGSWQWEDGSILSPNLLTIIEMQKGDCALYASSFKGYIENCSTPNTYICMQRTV
Kind of assay: Octet (BLI): His-tagged human NKG2D captured on HIS1K biosensors, dipped into 100 nM bivalent mAb. Background: Biolayer interferometry detects binding as a change in optical thickness at a sensor tip.

B1: XENP27594 (antibody, V domains shown)
VH: EVQLVESGGGLVKPGGSLRLSCAASGFTFSSYSMNWVRQAPGKGLEWVSSITSSSSYIYYADSVKGRFTISRDNAKNSLYLQMNSLRAEDTAVYYCARDRRYFDWFPLDYRGQGTLVTVSS
VL: DIQMTQSPSSLSASVGDRVTITCRASQGISSWLAWYQQKPEKAPKSLIYAASSLQSGVPSRFSGSGSGTDFTLTISSLQPEDFATYYCQQYNGYPYTFGQGTKLEIKR
notes: bivalent anti-NKG2D mAb, IgG1 with ablation variants; also called mAb E[NKG2D]_H1L1_IgG1_PVA_/S267K
In general, koff refers to the first-order rate constant of dissociation. A high value points to a short-lived complex. Usually kon stands for a measure of how fast the partners come together. A high value points to faster complex formation. B1: the Kd was 343 pM, the koff is 0.000387 s⁻¹ and the association rate constant (kon) is 1.13e+06 M⁻¹ s⁻¹.

B2: XENP27597 (antibody, human IgG1, lambda, V domains shown)
VH: EVQLVESGGGVVQPGGSLRLSCAASGFTFSSYGMHWVRQAPGKGLEWVAFIRYDGSNKYYADSVKGRFTISRDNSKNTKYLQMNSLRAEDTAVYYCAKDRFGYYLDYWGQGTLVTVSS
VL: QPVLTQPSSVSVAPGETARIPCGGDDIETKSVHWYQQKPGQAPVLVIYDDDDRPSGIPERFFGSNSGNTATLSISRVEAGDEADYYCQVWDDNNDEWVFGGGTQLTVLG
notes: bivalent anti-NKG2D mAb, IgG1 with ablation variants; also called KYK-1.0[NKG2D]_H1L1_IgG1_PVA_/S267K
The molecule B2 registered a Kd of 613 pM, a koff of 0.00113 s⁻¹ and a kon of 1.85e+06 M⁻¹ s⁻¹.

B3: XENP27614 (antibody, human IgG1, kappa, V domains shown)
VH: QVQLQESGPGLVKPSETLSLTCTVSGFSLTSYGVHWIRQPPGKGLEWIGVIWAGGSTNYNPSLKSRVTISKDNSKSQVSLKLSSVTAADTAVYYCARGGYEGAAWFGYWGQGTLVTVSS
VL: DIQLTQSPATLSLSPGERATLSCRASSSVSYMHWYQQKPGQSPRPLIYATSNLASGVPARFSGSGSGTDYTLTISSLEPEDFAVYYCQQWNSNPLTFGAGTKVEIKR
notes: humanized bivalent anti-NKG2D mAb, IgG1 with ablation variants; also called mAb A[NKG2D]_H2L2_IgG1_PVA_/S267K
B3 registered a Kd of at most 1 pM, a koff of at most 1e-07 s⁻¹ and a kon of 200000 M⁻¹ s⁻¹.

B4: XENP27612 (antibody, human IgG1, kappa, V domains shown)
VH: QVQLVQSGAEVKKPGASVKVSCKVSGFSLTSYGVHWIRQAPGQGLEWMGVIWAGGSTNYNSKFQGRVTMTKDNSKSTVYMELSSLRSEDTAVYYCARGGYEGAAWFGYWGQGTLVTVSS
VL: DIQLTQSPATLSLSPGERATLSCRASSSVSYMHWYQQKPGQSPRPLIYATSNLASGVPARFSGSGSGTDYTLTISSLEPEDFAVYYCQQWNSNPLTFGAGTKVEIKR
notes: humanized bivalent anti-NKG2D mAb, IgG1 with ablation variants; also called mAb A[NKG2D]_H1L2_IgG1_PVA_/S267K
B4 showed a Kd of at most 1 pM, a koff of at most 1e-07 s⁻¹ and a kon of 224000 M⁻¹ s⁻¹.

B5: XENP27611 (antibody, human IgG1, kappa, V domains shown)
VH: QVQLVQSGAEVKKPGASVKVSCKVSGFSLTSYGVHWIRQAPGQGLEWMGVIWAGGSTNYNSKFQGRVTMTKDNSKSTVYMELSSLRSEDTAVYYCARGGYEGAAWFGYWGQGTLVTVSS
VL: DIQLTQSPSSLSASVGDRVTITCRASSSVSYMHWYQQKPGKSPKPLIYATSNLASGVPARFSGSGSGTDYTLTISSLQPEDFATYYCQQWNSNPLTFGAGTKVEIKR
notes: humanized bivalent anti-NKG2D mAb, IgG1 with ablation variants; also called mAb A[NKG2D]_H1L1_IgG1_PVA_/S267K
In turn, B5 came in with a Kd of at most 1 pM, a koff of at most 1e-07 s⁻¹ and a kon of 228000 M⁻¹ s⁻¹.

B6: XENP27613 (antibody, human IgG1, kappa, V domains shown)
VH: QVQLQESGPGLVKPSETLSLTCTVSGFSLTSYGVHWIRQPPGKGLEWIGVIWAGGSTNYNPSLKSRVTISKDNSKSQVSLKLSSVTAADTAVYYCARGGYEGAAWFGYWGQGTLVTVSS
VL: DIQLTQSPSSLSASVGDRVTITCRASSSVSYMHWYQQKPGKSPKPLIYATSNLASGVPARFSGSGSGTDYTLTISSLQPEDFATYYCQQWNSNPLTFGAGTKVEIKR
notes: humanized bivalent anti-NKG2D mAb, IgG1 with ablation variants; also called mAb A[NKG2D]_H2L1_IgG1_PVA_/S267K
Molecule B6 registered a Kd of at most 1 pM, a koff of at most 1e-07 s⁻¹ and a kon of 254000 M⁻¹ s⁻¹.

B7: XENP27592 (antibody, human IgG1, kappa, V domains shown)
VH: QVQLQQSGPGLVQPSQSLSITCTVSGFSLTIYGVHWVRQSPGKGLEWLGVIWSGGSTDYNAAFISRLSISKDNSKRQVFFKMSSLQANDTAIYYCSRKSHDGYYGVMDYWGQGTTVTVSS
VL: DIQLTQSPAILSVSPGERVSFSCRASQSIGTSIHWYQQRTNGSPRLLIKYASESISGIPSRFSGSGSGTDFTLSINGVESEDIADYYCQQSNTWPLTFGAGTKLEIKR
notes: bivalent anti-NKG2D mAb, IgG1 with ablation variants; also called 6E5A7[NKG2D]_H0L0_IgG1_PVA_/S267K
As to B7, the Kd was at most 1 pM, the koff was at most 1e-07 s⁻¹ and the kon is 489000 M⁻¹ s⁻¹.

B8: XENP27598 (antibody, human IgG1, kappa, V domains shown)
VH: QVQLVQSGAEVKKPGASVKVSCKASGYTFTSYWMNWVRQAPGQGLEWMGRIDPYDSETHYNQKFQGRVTMTVDKSTSTAYMELSSLRSEDTAVYYCAKMGDYSFDYWGQGTLVTVSS
VL: DIQLTQSPSSLSASVGDRVTITCRASGNIHNYLAWYQQKPGKSPKVLVYNAKTLADGVPSRFSGSGSGTDYTLTISSLQPEDFATYYCQHFWSTTWTFGGGTKVEIKR
notes: humanized bivalent anti-NKG2D mAb, IgG1 with ablation variants; also called mAb B[NKG2D]_H1L1_IgG1_PVA_/S267K
For the molecule B8, the Kd turned out to be 679 pM, the koff was determined as 0.000746 s⁻¹ and the kon was 1.1e+06 M⁻¹ s⁻¹.

B9: XENP27600 (antibody, human IgG1, kappa, V domains shown)
VH: QVQLVQSGAEVKKPGASVKVSCKASGYTFTSYWMNWVRQAPGQGLEWMGRIDPYDSETHYNQKFQGRVTMTVDKSTSTAYMELSSLRSEDTAVYYCAKMGDYSFDYWGQGTLVTVSS
VL: DIQLTQSPDSLAVSLGERATINCKASGNIHNYLAWYQQKPGQSPKVLVYNAKTLADGVPSRFSGSGSGTDYTLTISSLQAEDVAVYYCQHFWSTTWTFGGGTKVEIKR
notes: humanized bivalent anti-NKG2D mAb, IgG1 with ablation variants; also called mAb B[NKG2D]_H1L2_IgG1_PVA_/S267K
Molecule B9 had a Kd of 595 pM, a koff of 0.000666 s⁻¹ and a kon of 1.12e+06 M⁻¹ s⁻¹.

B10: XENP27599 (antibody, human IgG1, kappa, V domains shown)
VH: QVQLVQSGAEVKKPGASVKVSCKASGYTFTSYWMNWVRQAPGQGLEWMGRIDPYDSETHYNQKFQGRVTMTVDKSTSTAYMELSSLRSEDTAVYYCAKMGDYSFDYWGQGTLVTVSS
VL: DIQLTQSPSSLSASVGDRVTITCRASGNIHNYLAWYQQKPGKSPKVLVYNAKTLADGVPSRFSGSGSGTDYTLTISSLQPEDFATYYCQHFWSTPWTFGGGTKVEIKR
notes: humanized bivalent anti-NKG2D mAb, IgG1 with ablation variants; also called mAb B[NKG2D]_H1_L1.1_IgG1_PVA_/S267K
Molecule B10 yielded a Kd of 3500 pM, a koff of 0.00169 s⁻¹ and a kon of 482000 M⁻¹ s⁻¹.

B11: XENP27593 (antibody, human IgG1, kappa, V domains shown)
VH: QVQLQESGPGLVAPSQSLSITCTVSGFSLTSYGVHWIRQPPGKGLEWLGVIWAGGSTNYNSALMSRLSISKDNSKSQVFLKMNSLQIDDTAMYYCARGGYEGAAWFGYWGQGTTVTVSS
VL: DIQLTQSPAILSASPGEKVTMTCRASSSVSYMHWYQQKPGSSPKPWIYATSNLASGVPARFSGSGSGTSYSLTISRVEAEDAATYYCQQWNSNPLTFGAGTKLEIKR
notes: bivalent anti-NKG2D mAb, IgG1 with ablation variants; also called 6H7E7[NKG2D]_H0L0_IgG1_PVA_/S267K
The molecule B11 yielded a Kd of at most 1 pM, a koff of at most 1e-07 s⁻¹ and a kon of 231000 M⁻¹ s⁻¹.

B12: XENP27591 (antibody, human IgG1, kappa, V domains shown)
VH: QVQLQQSGPELVRPGASVKLSCKASGYTFTSYWMNWVQQRPEQGLEWIGRIDPYDSETHYNQKFKDKAILTVDKSASTAYMQLSSLTSEDSAVYYCAKMGDYSFDYWGQGTTVTVSS
VL: DIQLTQSPASLSASVGETVTITCRASGNIHNYLAWYQQKQGKSPQVLVYNAKTLADGVPSRFSGSGSGTQYSLKINSLQPEDFGSYYCQHFWSTTWTFGGGTKLEIKR
notes: bivalent anti-NKG2D mAb, IgG1 with ablation variants; also called 11B2D10[NKG2D]_H0L0_IgG1_PVA_/S267K
Molecule B12 returned a Kd of 547 pM, a koff of 0.000792 s⁻¹ and a kon of 1.45e+06 M⁻¹ s⁻¹.

B13: XENP27596 (antibody, human IgG1, kappa, V domains shown)
VH: QVQLVQSGAEVKKPGASVKVSCKASGYTFTNYWMHWVRQAPGQGLEWMGEIDPSDIYTNYAQKFQGRVTMTRDTSTSTVYMELSSLRSEDTAVYYCARGIYDGYYVYGMDYWGQGTTVTVSS
VL: YIQMTQSPSSLSASVGDRVTITCRSSQDISNYLNWYQQKPGKAPKLLIYYTSRLHSGVPSRFSGSGSGTDFTFTISSLQPEDIATYYCQQGKTLPRTFGGGTKVEIKR
notes: bivalent anti-NKG2D mAb, IgG1 with ablation variants; also called mAb D[NKG2D]_H1L1_IgG1_PVA_/S267K
In the case of B13, the Kd is at most 1 pM, the koff is at most 1e-07 s⁻¹ and the kon is 698000 M⁻¹ s⁻¹.
